In paper PMC12080763:

Experiments:
[1] = molecular target: truncated prolactin receptor of Nb2 cells (rat (endogenous in Nb2-11))
[2] = molecular target: truncated prolactin receptor of Nb2 cells (rat (endogenous in Nb2-11)); remark: listed apart in the source

Row | EC50 of Nb2-11 cell proliferation (Alamar Blue, 3 days), Fig 3C [1] | EC50 of Nb2-11 cell proliferation (Alamar Blue, 3 days), Fig 3A [2] | Substance
1 | 0.81 nM | – | Fc-(FL3)-mono-hGH (from UniProt P01241 27-217) (Fc fusion)
2 | – | 1.64 nM | Mono-hGH-(FL3)-Fc (from UniProt P01241 27-217) (Fc fusion)
